Blank lines part the entries; values can stand above or below the substance they belong to.
Tests used:
[1] = target: microtubules (paclitaxel-stabilized, polymerized from tubulin); experiment: optical tweezers unbinding-force assay (constant-pulling); as a1 but with 1 mM ATP; non-reducing conditions
Target sequence in this assay (chain, as listed by the source, chain 1 of 2): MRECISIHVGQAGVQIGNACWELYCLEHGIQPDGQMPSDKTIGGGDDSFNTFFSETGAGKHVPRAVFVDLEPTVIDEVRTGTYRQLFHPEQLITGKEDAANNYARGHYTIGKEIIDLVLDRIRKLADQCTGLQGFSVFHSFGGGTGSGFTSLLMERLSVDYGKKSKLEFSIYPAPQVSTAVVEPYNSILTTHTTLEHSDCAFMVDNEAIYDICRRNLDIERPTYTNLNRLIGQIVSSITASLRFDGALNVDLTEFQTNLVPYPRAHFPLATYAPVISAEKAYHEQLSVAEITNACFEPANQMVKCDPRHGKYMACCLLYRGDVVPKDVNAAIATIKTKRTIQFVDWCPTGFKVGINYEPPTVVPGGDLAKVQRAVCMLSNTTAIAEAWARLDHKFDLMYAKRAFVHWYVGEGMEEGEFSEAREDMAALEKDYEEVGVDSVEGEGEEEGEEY
Target sequence in this assay (chain, as listed by the source, chain 2 of 2): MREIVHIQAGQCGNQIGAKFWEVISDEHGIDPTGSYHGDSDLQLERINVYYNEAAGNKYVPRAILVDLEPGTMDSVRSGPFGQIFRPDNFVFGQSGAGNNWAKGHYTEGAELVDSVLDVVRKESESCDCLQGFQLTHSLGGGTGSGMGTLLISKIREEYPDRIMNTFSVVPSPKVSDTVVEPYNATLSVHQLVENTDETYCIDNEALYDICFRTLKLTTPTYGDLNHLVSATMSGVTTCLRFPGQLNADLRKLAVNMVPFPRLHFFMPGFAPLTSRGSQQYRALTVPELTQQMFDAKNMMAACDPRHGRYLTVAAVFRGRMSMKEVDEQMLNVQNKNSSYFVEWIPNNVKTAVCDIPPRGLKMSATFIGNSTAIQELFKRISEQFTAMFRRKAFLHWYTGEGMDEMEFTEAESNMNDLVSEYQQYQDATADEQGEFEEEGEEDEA

[2] = target: microtubules (paclitaxel-stabilized, polymerized from tubulin); experiment: optical tweezers unbinding-force assay (constant-pulling); as a1 but with 1 mM ATP and TCEP (2 mM by the legend) to cleave the disulfide bonds of the stalk helices
Target sequence in this assay (P02550 whole entry, chain 1 of 2): as the sequence (chain, as listed by the source, chain 1 of 2) above
Target sequence in this assay (P02554 whole entry, chain 2 of 2, further chain): as the sequence (chain, as listed by the source, chain 2 of 2) above

[3] = target: microtubules (paclitaxel-stabilized, polymerized from tubulin); experiment: optical tweezers unbinding-force assay (constant-pulling); motor held by its GFP on anti-GFP Fab-coated ~1-μm beads in an optical trap, MTs immobilized on the coverslip (biotin-streptavidin) and swept past the bead; single-molecule level; no nucleotide (apo, residual ATP 37.5 nM); non-reducing conditions; 30 mM HEPES, 2 mM MgAc2, 1 mM EGTA, 20 μM paclitaxel, pH 7.2; theoretical loading rate 5.6 pN/s; primary unbinding events only
Target sequence in this assay (P02550 whole entry, chain 1 of 2): as the sequence (chain, as listed by the source, chain 1 of 2) above
Target sequence in this assay (P02554 whole entry, chain 2 of 2, further chain): as the sequence (chain, as listed by the source, chain 2 of 2) above

[4] = target: microtubules (paclitaxel-stabilized, polymerized from tubulin); experiment: single-molecule TIRF dwell-time measurement; zero load; labeled single heads binding to and leaving surface-immobilized Cy5-labeled MTs, 100 ms per frame; apo state (2 U/ml apyrase); 30 mM HEPES, 2 mM MgAc2, 1 mM EGTA, pH 7.2; unbinding rate from an exponential fit of the CDF of dwell times
Target sequence in this assay (chain, as listed by the source, chain 1 of 2): as the sequence (chain, as listed by the source, chain 1 of 2) above
Target sequence in this assay (chain, as listed by the source, chain 2 of 2): as the sequence (chain, as listed by the source, chain 2 of 2) above

Substance: AAA1 E/Q Dyn1_(331kDa) (E/Q mutation in the AAA1 Walker B motif), P36022 1219-4092
mean unbinding force (both directions) [1]: < 1 pN

Substance: Dyn1_(331kDa)-α CL (K3077C, A3250C; stalk helices disulfide cross-linked in the α-registry) (from UniProt P36022 1219-4092) (domain or fragment)
mean unbinding force, forward load [3]: 2.2 pN

Substance: Dyn1_(331kDa)-β CL (I3076C, L3247C; stalk helices disulfide cross-linked in the β-registry) (from UniProt P36022 1219-4092) (domain or fragment)
mean unbinding force, backward load [3]: 0.7 pN
mean unbinding force, forward load [3]: 0.7 pN

Substance: GFP-Dyn1_(331kDa), tail-truncated monomeric S. cerevisiae cytoplasmic dynein motor domain (wild type) (from UniProt P36022 1219-4092) (domain or fragment)
mean unbinding force, forward load [3]: 1.6 pN

Continued, values first:

mean unbinding force (both directions) [2]: < 1 pN
Substance: AAA1 E/Q Dyn1_(331kDa)-α CL (AAA1 Walker B E/Q; K3077C, A3250C) (from UniProt P36022 1219-4092) (domain or fragment)

average MT-bound time [4]: 290 ms
Substance: SNAP-tagged Dyn1_(331kDa)-β CL (β-mutant heads labeled via an inserted N-terminal SNAP-tag), P36022 1219-4092

Source: publication PMC6659695
